Assay results published in paper doi:10.1101/2020.06.27.175497, “Novel mode of filament formation in UPA-promoted CARD8 and NLRP1 Inflammasomes” (bioRxiv, 2020).

B1: NLRP1^CARD (D1374-S1473, with G1463C) (domain or fragment, human, UniProt Q9C000-1 1374-1473, looked up)
chain: DAPQLLHFVDQYREQLIARVTSVEVVLDKLHGQVLSQEQYERVLAENTRPSQMRKLFSLSQSWDRKCKDGLYQALKETHPHLIMELWEKCSKKGLLPLSS
notes: NLRP1, human, CARD D1374-S1473, isoform 1 (Q9C000-1); G1463C (helix alpha6) was added for cysteine labelling in the constructs for in vitro analyses; The cleavage of the tag is described for the CARD8^CARD filament assay; also called CARD alone; WT CARD; source: E. coli BL21 (DE3), purified as monomeric MBP-CARD (amylose resin, Superdex 200), filaments formed in vitro
B2: NLRP1-CT (UPA-CARD fragment of NLRP1, S1213-S1473) (domain or fragment, human, UniProt Q9C000-1 1213-1473, looked up)
chain: SPLGVLLKMIHNALRFIPVTSVVLLYHRVHPEEVTFHLYLIPSDCSIRKAIDDLEMKFQFVRIHKPPPLTPLYMGCRYTVSGSGSGMLEILPKELELCYRSPGEDQLFSEFYVGHLGSGIRLQVKDKKDETLVWEALVKPGDLMPATTLIPPARIAVPSPLDAPQLLHFVDQYREQLIARVTSVEVVLDKLHGQVLSQEQYERVLAENTRPSQMRKLFSLSQSWDRKCKDGLYQALKETHPHLIMELWEKGSKKGLLPLSS
notes: NLRP1, human, UPA-CARD fragment S1213-S1473, isoform 1 (Q9C000-1); Forms thick helical filaments of CARD dimers; the purified filaments still held some uncleaved His-MBP-tagged subunits; Only the CARD is resolved in the map; also called NLRP1^UPA-CARD; source: E. coli BL21 (DE3), purified (amylose resin, Superose 6, MBP-3C protease cleavage, Superose 6 void fraction); not shown: His, …
B3: His-MBP-3C-UPA-CARD of NLRP1 (uncleaved MBP fusion of NLRP1-CT) (domain or fragment, human, UniProt Q9C000-1 1213-1473, looked up)
chain: B2 chain
notes: NLRP1, human, UPA-CARD fragment S1213-S1473, isoform 1 (Q9C000-1); HRV 3C protease linker between MBP and UPA-CARD; modified pDB-His-MBP vector; also called MBP-fusion protein; MBP-CT fusion protein; source: E. coli BL21 (DE3), purified (amylose resin, Superose 6); not shown: His, N-terminal, kept; MBP, N-terminal, kept
B4: caspase-1^CARD (1-95) G20K (domain or fragment, UniProt P29466 1-95, looked up)
chain: MADKVLKEKRKLFIRSMGEKTINGLLDELLQTRVLNKEEMEKVKRENATVMDKTRALIDSVIPKGAQACQICITYICEEDSYLAGTLGLSADQTS
notes: caspase-1, CARD, residues 1-95; Stood in the experiment on one chain with ASC^CARD W169G through a 5 x GSS linker (fusion m9); also called CASP1^CARD; type IIb G20K mutant of caspase-1^CARD; source: E. coli BL21 (DE3), purified (Ni-NTA, TEV cleavage, amylose flow-through, Superdex 200), as part of the fusion m9
B5: CARD8-CT (UPA-CARD fragment of CARD8, S297-L537) (domain or fragment, human, UniProt Q9Y2G2-5 297-537, looked up)
chain: SLMGILLRIASGTRLSIPITSNTLIYYHPHPEDIKFHLYLVPSDALLTKAIDDEEDRFHGVRLQTSPPMEPLNFGSSYIVSNSANLKVMPKELKLSYRSPGEIQHFSKFYAGQMKEPIQLEITEKRHGTLVWDTEVKPVDLQLVAASAPPPFSGAAFVKENHRQLQARMGDLKGVLDDLQDNEVLTENEKELVEQEKTRQSKNEALLSMVEKKGDLALDVLFRSISERDPYLVSYLRQQNL
notes: CARD8, human, UPA-CARD fragment S297-L537 of the T60 isoform; numbers count on: the T60 isoform Q9Y2G2-5; Forms helical filaments; the purified filaments still held some uncleaved His-MBP-tagged subunits; Only the CARD is resolved in the map; also called CARD8^UPA-CARD; source: E. coli BL21 (DE3), purified (amylose resin, MBP-3C protease cleavage, Superose 6 void fraction); not shown: His, …
B6: His-MBP-3C-UPA-CARD of CARD8 (uncleaved MBP fusion of CARD8-CT) (domain or fragment, human, UniProt Q9Y2G2-5 297-537, looked up)
chain: B5 chain
notes: CARD8, human, UPA-CARD fragment S297-L537 of the T60 isoform; numbers count on: the T60 isoform Q9Y2G2-5; HRV 3C protease linker between MBP and UPA-CARD; modified pDB-His-MBP vector; also called MBP-fusion protein; MBP-CT fusion protein; source: E. coli BL21 (DE3), purified (amylose resin); not shown: His, N-terminal, kept; MBP, N-terminal, kept
B7: ASC^CARD (106-195, W169G) - 5 x GSS linker - caspase-1^CARD (1-95, G20K) fusion protein (other)
chain: SAAKPGLHFIDQHRAALIARVTNVEWLLDALYGKVLTDEQYQAVRAEPTNPSKMRKLFSFTPAGNWTCKDLLLQALRESQSYLVEDLERSGSSGSSGSSGSSGSSMADKVLKEKRKLFIRSMGEKTINGLLDELLQTRVLNKEEMEKVKRENATVMDKTRALIDSVIPKGAQACQICITYICEEDSYLAGTLGLSADQTS
notes: ASC, CARD, residues 106-195; 5 x GSS linker, written out from '5XGSS'; caspase-1, CARD, residues 1-95; Tetramer of the fusion = octamer of CARDs; also called ASC^CARD-caspase-1^CARD fusion protein; ASC^CARD-CASP1^CARD; source: E. coli BL21 (DE3), purified (Ni-NTA, TEV cleavage, amylose flow-through, Superdex 200); not shown: His6, N-terminal, cleaved; MBP, N-terminal, cleaved
B8: ASC^CARD (106-195) W169G (domain or fragment, UniProt Q9ULZ3 106-195, looked up)
chain: SAAKPGLHFIDQHRAALIARVTNVEWLLDALYGKVLTDEQYQAVRAEPTNPSKMRKLFSFTPAGNWTCKDLLLQALRESQSYLVEDLERS
notes: ASC, CARD, residues 106-195; Stood in the experiment on one chain with caspase-1^CARD G20K through a 5 x GSS linker (fusion m9); also called type IIa W169G mutant of ASC^CARD; source: E. coli BL21 (DE3), purified (Ni-NTA, TEV cleavage, amylose flow-through, Superdex 200), as part of the fusion m9

Tests used:
[1] = target: the molecule itself; test: negative-stain EM of filaments formed in vitro; recombinant MBP-tagged protein cleaved with 3C protease, sample stained with 1% uranyl formate and imaged
[2] = target: the molecule itself; test: SEC; amylose eluate of His-MBP-NLRP1-CT on Superose 6 in 25 mM Tris-HCl pH 7.5, 150 mM NaCl, 1 mM TCEP; a range of small oligomers
[3] = target: B2; test: SEC; after partial 3C cleavage, filaments recovered from the Superose 6 void fraction; SDS-PAGE of the fraction shows uncleaved MBP-tagged protein; details: both partners purified
[4] = target: the molecule itself; test: cryo-EM structure; purified ASC^CARD-caspase-1^CARD octamer (tetramer of the fusion protein); single-particle reconstruction
[5] = target: the molecule itself; test: cryo-EM structure; purified CARD8 CT filaments (Superose 6 void fraction), A280 = 0.75; 25 mM Tris-HCl pH 7.5, 150 mM NaCl, 1 mM TCEP; helical reconstruction
[6] = target: B5; test: SEC; after partial 3C cleavage, filaments recovered from the Superose 6 void fraction; SDS-PAGE of the fraction shows uncleaved MBP-tagged protein; details: both partners purified
[7] = target: the molecule itself; test: SEC-MALS; Superdex 200 in 25 mM Tris-HCl pH 8.0, 150 mM NaCl, 2 mM DTT; three-angle light scattering and refractive index detectors
[8] = target: B4; test: cryo-EM structure; purified ASC^CARD-caspase-1^CARD octamer (tetramer of the fusion protein); single-particle reconstruction; details: both partners purified

Binder: B1
binding result [1]: binds

Binder: B2
binding result [1]: binds

Binder: B3
binding result [2]: binds
binding result [3]: binds

Binder: B4
binding result [4]: binds

Binder: B5
binding result [5]: binds

Binder: B6
binding result [6]: binds

Binder: B7
stoichiometry N [7]: 4

Binder: B8
binding result [8]: binds
binding result [4]: binds
